Results from paper PMC6706441, “B1 oligomerization regulates PML nuclear body biogenesis and leukemogenesis” (Nature Communications, 2019).
Several values for one entry are separate records, joined by “and”; a condition that tells them apart may be missing. Identical values can stand only once.

Tests used:
[1] = molecular target: the molecule itself; assay: AUC; sedimentation velocity of the gel filtration peaks; Beckman XL-1, 130,000 g, 20 °C, >12 h; 20 mM Tris, pH 8.0, 100 mM NaCl; SEDFIT continuous c(s) model
[2] = molecular target: the molecule itself; assay: SEC; gel filtration on a calibrated Superdex 200 column; 20 mM Tris, pH 8.0, 100 mM NaCl
[3] = molecular target: the molecule itself; assay: cross-linking; 0.3 μg purified HA-PML(1–256) with increasing glutaraldehyde, on ice 30 min, 20 mM Hepes pH 7.4; 4–12% SDS-PAGE, anti-HA immunoblot
[4] = molecular target: the molecule itself; assay: crystal structure; vapor diffusion, protein 38 mg/ml; 30% PEG 6000, 1 M lithium chloride, 100 mM sodium acetate; Zn SAD; oligomers from the asymmetric unit and crystal packing
[5] = molecular target: the molecule itself; assay: cross-linking; 5 μg purified B1 with 0.05, 0.1, 0.2% (w/v) glutaraldehyde, on ice 30 min, 20 mM Hepes pH 7.4; 8–16% SDS-PAGE, coomassie

B1: PML_(1–256) I122P/V123P (domain or fragment, UniProt P29590-1 1-256, looked up)
chain: MEPAPARSPRPQQDPARPQEPTMPPPETPSEGRQPSPSPSPTERAPASEEEFQFLRCQQCQAEAKCPKLLPCLHTLCSGCLEASGMQCPICQAPWPLGADTPALDNVFFESLQRRLSVYRQPPDAQAVCTRCKESADFWCFECEQLLCAKCFEAHQWFLKHEARPLAELRNQSVREFLDGTRKTNNIFCSNPNHRTPTLTSIYCRGCSKPLCCSCALLDSSHSELKCDISAEIQQRQEELDAMTQALQEQDSAFGA
notes: PML (TRIM19), residues 1-256, double mutant I122P/V123P; source: E. coli BL21 (DE3), purified (His-Trap, thrombin, Q, Phenyl, Superdex 200); not shown: SUMO (human), N-terminal, cleaved; His tag, N-terminal, cleaved
B1: binds [1].

B2: PML_(1–256) F158E (domain or fragment, UniProt P29590-1 1-256, looked up)
chain: MEPAPARSPRPQQDPARPQEPTMPPPETPSEGRQPSPSPSPTERAPASEEEFQFLRCQQCQAEAKCPKLLPCLHTLCSGCLEASGMQCPICQAPWPLGADTPALDNVFFESLQRRLSVYRQIVDAQAVCTRCKESADFWCFECEQLLCAKCFEAHQWELKHEARPLAELRNQSVREFLDGTRKTNNIFCSNPNHRTPTLTSIYCRGCSKPLCCSCALLDSSHSELKCDISAEIQQRQEELDAMTQALQEQDSAFGA
notes: PML (TRIM19), residues 1-256, mutant F158E; source: E. coli BL21 (DE3), purified (His-Trap, thrombin, Q, Phenyl, Superdex 200); not shown: SUMO (human), N-terminal, cleaved; His tag, N-terminal, cleaved
B2: binds [2].

B3: PML RBCC fragment, residues 1-256 (RING, B1, B2 and a 20-residue coiled-coil), wild type (domain or fragment, UniProt P29590-1 1-256, looked up)
chain: MEPAPARSPRPQQDPARPQEPTMPPPETPSEGRQPSPSPSPTERAPASEEEFQFLRCQQCQAEAKCPKLLPCLHTLCSGCLEASGMQCPICQAPWPLGADTPALDNVFFESLQRRLSVYRQIVDAQAVCTRCKESADFWCFECEQLLCAKCFEAHQWFLKHEARPLAELRNQSVREFLDGTRKTNNIFCSNPNHRTPTLTSIYCRGCSKPLCCSCALLDSSHSELKCDISAEIQQRQEELDAMTQALQEQDSAFGA
notes: PML (TRIM19), residues 1-256: RING, B1-box, B2-box and a 20-residue coiled-coil; His tag lay between SUMO and PML; SUMO-His removed after thrombin digestion; Mixture of monomer, dimer, tetramer and N-mer in solution; also called PML_(1–256); RBCC_(1–256); source: E. coli BL21 (DE3), purified (His-Trap, thrombin, Q, Phenyl, Superdex 200); not shown: SUMO (human), N-terminal, cleaved; His tag, …
In the case of B3, the “stoichiometry N” value [1] is reported as 2 and 4.

B4: PML_(1–256) W157E (domain or fragment, UniProt P29590-1 1-256, looked up)
chain: MEPAPARSPRPQQDPARPQEPTMPPPETPSEGRQPSPSPSPTERAPASEEEFQFLRCQQCQAEAKCPKLLPCLHTLCSGCLEASGMQCPICQAPWPLGADTPALDNVFFESLQRRLSVYRQIVDAQAVCTRCKESADFWCFECEQLLCAKCFEAHQEFLKHEARPLAELRNQSVREFLDGTRKTNNIFCSNPNHRTPTLTSIYCRGCSKPLCCSCALLDSSHSELKCDISAEIQQRQEELDAMTQALQEQDSAFGA
notes: PML (TRIM19), residues 1-256, mutant W157E; source: E. coli BL21 (DE3), purified (His-Trap, thrombin, Q, Phenyl, Superdex 200); not shown: SUMO (human), N-terminal, cleaved; His tag, N-terminal, cleaved
B4: binds [2].

B5: HA-PML_(1–256) I122P/V123P (domain or fragment, UniProt P29590-1 1-256, looked up)
chain: MEPAPARSPRPQQDPARPQEPTMPPPETPSEGRQPSPSPSPTERAPASEEEFQFLRCQQCQAEAKCPKLLPCLHTLCSGCLEASGMQCPICQAPWPLGADTPALDNVFFESLQRRLSVYRQPPDAQAVCTRCKESADFWCFECEQLLCAKCFEAHQWFLKHEARPLAELRNQSVREFLDGTRKTNNIFCSNPNHRTPTLTSIYCRGCSKPLCCSCALLDSSHSELKCDISAEIQQRQEELDAMTQALQEQDSAFGA
notes: PML (TRIM19), residues 1-256, double mutant I122P/V123P; See note of m9; source: purified
B5: binds [3].

B6: PML B1-box, residues 120-168, wild type (domain or fragment, UniProt P29590 120-168, looked up)
chain: RQIVDAQAVCTRCKESADFWCFECEQLLCAKCFEAHQWFLKHEARPLAE
notes: PML (TRIM19) B1-box, residues 120-168; residues 120-167 are seen in the crystallographic monomer; Four molecules in the asymmetric unit; also called WT B1; source: E. coli BL21 (DE3), purified (His-Trap, thrombin, Q, Phenyl, S100); not shown: His tag, N-terminal, cleaved
B6: binds [4].

B7: PML B1-box I122P/V123P (domain or fragment, UniProt P29590 120-168, looked up)
chain: RQPPDAQAVCTRCKESADFWCFECEQLLCAKCFEAHQWFLKHEARPLAE
notes: PML (TRIM19) B1-box, residues 120-168, double mutant I122P/V123P; PDB 6IMQ holds the wild-type parent; source: E. coli BL21 (DE3), purified (His-Trap, thrombin, Q, Phenyl, S100); not shown: His tag, N-terminal, cleaved
B7: binds [5].
